Assay results as given in the supplement of paper PMC10065799, “High-throughput profiling of sequence recognition by tyrosine kinases and SH2 domains using bacterial peptide display” (eLife, 2023).

What was measured:
c-Src = assay: phosphorylation enrichment, bacterial display (enrichment ratio); higher = better substrate or ligand; peptides without Tyr show the background
Fes = Fes (UniProt P07332); assay: as above
EPHB2 = EPHB2 (UniProt P29323); assay: as above
AncSZ = assay: as above
FGFR1 = FGFR1 (UniProt P11362); assay: as above
MERTK = MERTK (UniProt Q12866); assay: as above
Chain of MERTK (Q12866 whole entry, looked up): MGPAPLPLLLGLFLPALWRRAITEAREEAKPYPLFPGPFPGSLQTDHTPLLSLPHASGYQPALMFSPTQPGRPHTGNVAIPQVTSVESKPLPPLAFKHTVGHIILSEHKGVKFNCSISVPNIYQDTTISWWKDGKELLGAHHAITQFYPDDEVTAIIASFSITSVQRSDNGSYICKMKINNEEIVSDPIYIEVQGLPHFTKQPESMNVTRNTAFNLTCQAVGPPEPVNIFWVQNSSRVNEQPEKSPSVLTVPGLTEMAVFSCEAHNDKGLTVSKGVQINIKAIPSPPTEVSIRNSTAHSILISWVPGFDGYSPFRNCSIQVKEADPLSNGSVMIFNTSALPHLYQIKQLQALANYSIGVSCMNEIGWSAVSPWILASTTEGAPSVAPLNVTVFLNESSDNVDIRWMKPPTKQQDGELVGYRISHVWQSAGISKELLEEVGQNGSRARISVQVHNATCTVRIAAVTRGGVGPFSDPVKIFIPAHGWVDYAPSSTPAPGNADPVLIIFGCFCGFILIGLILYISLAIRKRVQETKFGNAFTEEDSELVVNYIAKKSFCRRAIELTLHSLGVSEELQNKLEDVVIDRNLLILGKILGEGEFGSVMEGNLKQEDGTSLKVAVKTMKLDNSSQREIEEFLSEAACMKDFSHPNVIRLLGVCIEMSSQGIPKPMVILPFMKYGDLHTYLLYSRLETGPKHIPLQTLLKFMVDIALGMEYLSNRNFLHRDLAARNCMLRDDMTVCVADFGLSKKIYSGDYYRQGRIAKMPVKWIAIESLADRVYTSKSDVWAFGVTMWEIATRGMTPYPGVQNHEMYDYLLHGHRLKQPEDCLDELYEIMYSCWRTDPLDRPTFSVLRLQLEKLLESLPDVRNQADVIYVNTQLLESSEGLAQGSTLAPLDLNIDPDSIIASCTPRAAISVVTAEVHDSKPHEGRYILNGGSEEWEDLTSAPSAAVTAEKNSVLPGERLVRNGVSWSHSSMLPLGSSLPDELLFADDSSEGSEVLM

Jak2 = Jak2 (UniProt O60674); assay: as above
Chain of Jak2 (O60674 whole entry, looked up): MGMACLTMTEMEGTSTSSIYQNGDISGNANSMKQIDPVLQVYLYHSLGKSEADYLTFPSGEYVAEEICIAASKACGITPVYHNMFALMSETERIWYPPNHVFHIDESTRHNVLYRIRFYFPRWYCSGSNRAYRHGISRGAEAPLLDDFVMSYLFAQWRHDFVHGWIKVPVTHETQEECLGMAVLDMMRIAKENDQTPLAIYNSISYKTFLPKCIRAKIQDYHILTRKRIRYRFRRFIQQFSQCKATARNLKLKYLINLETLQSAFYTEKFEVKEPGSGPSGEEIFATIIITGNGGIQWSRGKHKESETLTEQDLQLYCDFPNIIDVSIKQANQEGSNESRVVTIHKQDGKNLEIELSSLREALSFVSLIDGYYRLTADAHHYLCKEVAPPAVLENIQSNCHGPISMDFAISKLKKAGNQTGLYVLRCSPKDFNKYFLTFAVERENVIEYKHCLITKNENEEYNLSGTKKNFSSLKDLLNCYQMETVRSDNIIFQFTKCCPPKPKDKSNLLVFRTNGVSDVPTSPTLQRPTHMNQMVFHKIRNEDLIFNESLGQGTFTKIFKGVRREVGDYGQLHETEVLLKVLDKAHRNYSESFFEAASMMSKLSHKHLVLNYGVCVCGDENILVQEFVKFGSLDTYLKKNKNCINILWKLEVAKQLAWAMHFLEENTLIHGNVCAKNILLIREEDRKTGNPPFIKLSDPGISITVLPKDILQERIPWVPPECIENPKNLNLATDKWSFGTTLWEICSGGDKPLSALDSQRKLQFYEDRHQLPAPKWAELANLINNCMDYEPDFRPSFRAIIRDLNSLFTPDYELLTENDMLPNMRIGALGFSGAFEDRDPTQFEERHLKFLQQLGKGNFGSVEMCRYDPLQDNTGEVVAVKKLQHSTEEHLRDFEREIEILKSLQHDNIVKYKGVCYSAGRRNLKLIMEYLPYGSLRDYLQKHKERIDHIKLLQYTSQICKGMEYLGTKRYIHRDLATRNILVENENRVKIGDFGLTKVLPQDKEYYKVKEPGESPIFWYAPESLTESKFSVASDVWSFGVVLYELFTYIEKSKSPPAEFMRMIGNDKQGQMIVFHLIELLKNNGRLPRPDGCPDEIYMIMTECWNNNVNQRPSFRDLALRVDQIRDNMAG

EPHB1 = EPHB1 (UniProt P54762); assay: as above
Chain of EPHB1 (P54762 whole entry, looked up): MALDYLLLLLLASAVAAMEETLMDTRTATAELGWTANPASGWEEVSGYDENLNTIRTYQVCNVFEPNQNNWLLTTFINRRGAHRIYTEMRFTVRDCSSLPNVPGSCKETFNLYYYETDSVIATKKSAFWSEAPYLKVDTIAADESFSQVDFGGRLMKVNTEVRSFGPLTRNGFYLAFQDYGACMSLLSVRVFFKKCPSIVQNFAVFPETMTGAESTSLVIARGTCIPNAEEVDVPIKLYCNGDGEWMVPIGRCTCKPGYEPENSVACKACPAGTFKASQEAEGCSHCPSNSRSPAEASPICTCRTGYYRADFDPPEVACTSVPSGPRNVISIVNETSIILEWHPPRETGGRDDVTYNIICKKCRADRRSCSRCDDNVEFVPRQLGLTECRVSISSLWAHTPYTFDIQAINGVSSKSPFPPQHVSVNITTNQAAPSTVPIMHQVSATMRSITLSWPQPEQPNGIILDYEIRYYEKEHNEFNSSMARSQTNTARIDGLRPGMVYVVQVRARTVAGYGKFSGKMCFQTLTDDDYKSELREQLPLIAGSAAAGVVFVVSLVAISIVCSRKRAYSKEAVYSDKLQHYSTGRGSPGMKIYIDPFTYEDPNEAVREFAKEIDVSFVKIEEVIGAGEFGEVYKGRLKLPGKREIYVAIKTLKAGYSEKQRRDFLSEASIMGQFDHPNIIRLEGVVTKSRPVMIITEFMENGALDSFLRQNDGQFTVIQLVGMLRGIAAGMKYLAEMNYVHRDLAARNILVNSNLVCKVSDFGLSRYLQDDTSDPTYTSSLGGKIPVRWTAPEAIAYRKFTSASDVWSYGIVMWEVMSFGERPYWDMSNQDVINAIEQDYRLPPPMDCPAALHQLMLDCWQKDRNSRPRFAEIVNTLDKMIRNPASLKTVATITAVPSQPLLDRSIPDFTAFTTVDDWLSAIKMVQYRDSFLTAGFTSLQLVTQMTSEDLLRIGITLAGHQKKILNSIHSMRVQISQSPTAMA

FGFR3 = FGFR3 (UniProt P22607); assay: as above
Fer (mouse) = assay: as above
c-Abl (mouse) = assay: as above
Hck = Hck (UniProt P08631); assay: as above
Fyn = Fyn (UniProt P06241); assay: as above
Grb2 SH2 = Grb2 SH2 (UniProt P62993); assay: SH2 binding enrichment of the phosphorylated peptide, bacterial display (enrichment ratio); higher = better substrate or ligand; peptides without Tyr show the background
SHP2-C SH2 = assay: as above
c-Src SH2 = assay: as above
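Wherever SH2 binding enrichment of the phosphorylated peptide, bacterial display is given: peptide library displayed on the E. coli surface as eCPX fusions, selected cells deep-sequenced, score is each peptide's frequency after selection divided by its frequency in the input.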
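Wherever phosphorylation enrichment, bacterial display is given: 11-residue human phosphosite peptides and single-mutation variants displayed on the E. coli surface, counted by deep sequencing, each peptide's frequency after selection divided by its frequency in the unselected input library; frequency after pTyr selection over input frequency; kinase dosed for 20-30% of maximal phosphorylation in three min.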

Chain of Fes (P07332 whole entry, looked up): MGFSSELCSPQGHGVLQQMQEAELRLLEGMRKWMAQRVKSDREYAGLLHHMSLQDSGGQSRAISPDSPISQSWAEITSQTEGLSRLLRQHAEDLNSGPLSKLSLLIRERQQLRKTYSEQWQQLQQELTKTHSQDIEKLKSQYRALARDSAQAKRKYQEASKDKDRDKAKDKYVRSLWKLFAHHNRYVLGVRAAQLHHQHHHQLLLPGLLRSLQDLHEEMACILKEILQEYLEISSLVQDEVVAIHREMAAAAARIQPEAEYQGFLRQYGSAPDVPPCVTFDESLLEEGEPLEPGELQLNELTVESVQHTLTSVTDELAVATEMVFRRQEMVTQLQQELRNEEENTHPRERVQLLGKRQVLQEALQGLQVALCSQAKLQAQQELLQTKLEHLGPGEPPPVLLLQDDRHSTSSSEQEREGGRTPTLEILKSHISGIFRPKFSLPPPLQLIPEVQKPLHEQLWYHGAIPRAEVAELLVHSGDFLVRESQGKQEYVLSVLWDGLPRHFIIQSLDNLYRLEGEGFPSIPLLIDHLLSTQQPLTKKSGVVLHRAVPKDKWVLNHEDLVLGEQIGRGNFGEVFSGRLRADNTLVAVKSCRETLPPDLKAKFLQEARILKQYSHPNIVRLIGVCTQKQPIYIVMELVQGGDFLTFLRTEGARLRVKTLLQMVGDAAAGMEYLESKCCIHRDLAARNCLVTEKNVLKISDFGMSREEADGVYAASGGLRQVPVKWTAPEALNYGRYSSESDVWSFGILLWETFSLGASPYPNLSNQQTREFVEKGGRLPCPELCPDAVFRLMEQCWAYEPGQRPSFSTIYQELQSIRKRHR
Chain of EPHB2 (P29323 whole entry, looked up): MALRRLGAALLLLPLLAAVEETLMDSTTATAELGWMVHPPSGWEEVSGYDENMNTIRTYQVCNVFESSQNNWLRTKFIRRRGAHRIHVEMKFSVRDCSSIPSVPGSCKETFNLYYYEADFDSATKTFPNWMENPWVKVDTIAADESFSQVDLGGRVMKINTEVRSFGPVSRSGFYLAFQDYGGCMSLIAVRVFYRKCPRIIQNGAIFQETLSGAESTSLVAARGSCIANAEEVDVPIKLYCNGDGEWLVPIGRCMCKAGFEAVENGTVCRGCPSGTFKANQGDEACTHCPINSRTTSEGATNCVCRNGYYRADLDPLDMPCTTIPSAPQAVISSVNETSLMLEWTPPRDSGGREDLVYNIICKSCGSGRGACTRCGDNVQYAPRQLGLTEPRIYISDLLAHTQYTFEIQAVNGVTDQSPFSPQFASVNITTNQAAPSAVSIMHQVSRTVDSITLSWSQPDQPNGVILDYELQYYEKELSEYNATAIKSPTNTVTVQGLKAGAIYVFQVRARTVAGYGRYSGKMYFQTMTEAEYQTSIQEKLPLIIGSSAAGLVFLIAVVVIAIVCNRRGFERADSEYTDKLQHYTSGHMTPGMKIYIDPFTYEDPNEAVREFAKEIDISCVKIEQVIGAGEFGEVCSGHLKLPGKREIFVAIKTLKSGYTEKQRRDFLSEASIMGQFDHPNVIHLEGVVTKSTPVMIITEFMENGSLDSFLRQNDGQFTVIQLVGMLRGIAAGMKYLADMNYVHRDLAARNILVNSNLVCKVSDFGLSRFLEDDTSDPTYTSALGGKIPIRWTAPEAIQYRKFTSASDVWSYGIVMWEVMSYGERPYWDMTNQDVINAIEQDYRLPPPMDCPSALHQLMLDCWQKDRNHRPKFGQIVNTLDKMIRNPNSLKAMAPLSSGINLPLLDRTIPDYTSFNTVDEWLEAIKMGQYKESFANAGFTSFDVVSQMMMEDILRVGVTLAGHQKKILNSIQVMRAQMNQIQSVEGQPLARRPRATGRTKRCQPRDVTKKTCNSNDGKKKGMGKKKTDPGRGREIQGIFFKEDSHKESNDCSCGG

Sequence	SH2 binding enrichment (Grb2 SH2)	SH2 binding enrichment (SHP2-C SH2)	SH2 binding enrichment (c-Src SH2)	phosphorylation enrichment (c-Src)	phosphorylation enrichment (Fes)	phosphorylation enrichment (EPHB2)	phosphorylation enrichment (AncSZ)	phosphorylation enrichment (FGFR1)	phosphorylation enrichment (MERTK)	phosphorylation enrichment (Jak2)	phosphorylation enrichment (EPHB1)	phosphorylation enrichment (FGFR3)	phosphorylation enrichment (Fer (mouse))	phosphorylation enrichment (c-Abl (mouse))	phosphorylation enrichment (Hck)	phosphorylation enrichment (Fyn)
DKEKWYPLGNS [PIK3C2G_Y1438]	0.83	1.11	0.44	0.345	0.868	0.441	0.762	0.384	0.292	0.681	0.43	0.569	0.422	0.488	0.372	0.366
LKEIHYPPYTD [ALDH3B2_Y362]	0.896	0.975	0.654	0.917	1.17	0.744	1.18	0.645	0.573	1.01	0.735	0.826	0.584	0.763	0.929	0.718
STTSDYQWDFS [MTDH_Y364_V368F]	0.821	0.637	0.573	0.58	1.1	0.776	1.36	1.24	0.409	1.14	0.905	1.27	0.598	0.736	0.524	0.473
FLRKEYGGVNV [CBR3_Y81_L84V]	0.984	0.698	0.458	0.578	0.916	0.4	0.644	0.416	0.471	0.598	0.391	0.495	0.475	0.612	0.425	0.452

The next lines start with results.

SH2 binding enrichment (Grb2 SH2)	SH2 binding enrichment (SHP2-C SH2)	SH2 binding enrichment (c-Src SH2)	Sequence	phosphorylation enrichment (c-Src)	phosphorylation enrichment (Fes)	phosphorylation enrichment (EPHB2)	phosphorylation enrichment (AncSZ)	phosphorylation enrichment (FGFR1)	phosphorylation enrichment (MERTK)	phosphorylation enrichment (Jak2)	phosphorylation enrichment (EPHB1)	phosphorylation enrichment (FGFR3)	phosphorylation enrichment (Fer (mouse))	phosphorylation enrichment (c-Abl (mouse))	phosphorylation enrichment (Hck)	phosphorylation enrichment (Fyn)
0.702	0.768	0.56	PTYKHYANSTQ [SLC12A3_Y70_E68K]	0.422	0.592	0.418	0.39	0.529	0.442	0.593	0.391	0.466	0.448	0.44	0.434	0.542
0.901	1.13	0.433	RQSHNYLGGFA [SYK_Y47_R45H]	0.394	0.65	0.537	0.686	0.501	0.414	0.523	0.427	0.558	0.387	0.817	0.599	0.464
0.953	0.613	0.642	PDKRIYQFTAS [SKAP2_Y197_A202S]	0.765	0.684	0.629	0.691	0.831	0.846	0.637	0.491	0.649	0.802	0.551	0.698	0.826
0.698	0.574	0.422	SVTCTYTPALN [TP53_Y126_S127T]	0.455	1.29	0.639	1.43	0.5	0.404	1.24	0.633	0.811	0.478	0.88	0.511	0.49
